# Source: patent CN108101970A
# Molecular target: 抗Cry1Ab单克隆抗体
# Experiment: indirect competitive ELISA (chemiluminescence), anti-Cry1Ab mAb coated at 10 μg/mL; competitor: Cry1Ab mimic nanobody (phage 1.0×10^11 pfu or protein 10 μg/mL)
substance,measurement,value
Cry1Ab标准品 (from UniProt P0A370 29-607),IC50,0.0427 µg/mL
